Experimental data taken from article PMC5837041 (Molecular cell, 2017).
Positions count from the first letter of the chain named. Names may count otherwise. Blank lines part the entries; values can stand above or below the molecule they belong to.

How the values were obtained:
[1] = biological target: T1, Vms1 (Vms1^1-417) (Saccharomyces cerevisiae, UniProt Q04311); test: lipid blot on nitrocellulose; assay type: binding; details: TBS pH 7.5, 4 °C, 3% BSA (blot); competitive with LRS for the MTD
T1 sequence (Q04311 1-417): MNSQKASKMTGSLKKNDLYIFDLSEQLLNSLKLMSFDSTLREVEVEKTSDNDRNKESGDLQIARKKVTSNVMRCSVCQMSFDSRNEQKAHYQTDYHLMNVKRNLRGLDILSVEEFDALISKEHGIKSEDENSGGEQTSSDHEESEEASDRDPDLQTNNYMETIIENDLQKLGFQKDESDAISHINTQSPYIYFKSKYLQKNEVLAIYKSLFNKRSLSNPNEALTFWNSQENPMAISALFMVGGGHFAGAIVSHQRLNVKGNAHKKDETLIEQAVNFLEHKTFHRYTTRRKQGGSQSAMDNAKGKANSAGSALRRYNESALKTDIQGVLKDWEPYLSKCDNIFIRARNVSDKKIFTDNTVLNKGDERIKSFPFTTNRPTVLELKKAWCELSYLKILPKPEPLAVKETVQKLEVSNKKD

[2] = biological target: T2, C-terminal fragment of PreScission-cleaved His10-Vms1(1-182-PP-417)-HA (S. cerevisiae, UniProt Q04311 183-417); test: SEC
T2 sequence (looked up): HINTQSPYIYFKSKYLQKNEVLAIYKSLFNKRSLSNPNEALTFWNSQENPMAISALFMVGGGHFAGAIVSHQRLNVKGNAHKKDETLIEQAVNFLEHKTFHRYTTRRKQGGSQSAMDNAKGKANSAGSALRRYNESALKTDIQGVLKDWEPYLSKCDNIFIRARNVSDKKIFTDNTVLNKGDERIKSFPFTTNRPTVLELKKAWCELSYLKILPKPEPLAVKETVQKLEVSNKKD

[3] = biological target: T3, C-terminal fragment of PreScission-cleaved His10-Vms1(1-182-PP-417, C387A, E25C, S228C)-HA (S. cerevisiae, UniProt Q04311 183-417, S228C | C387A); test: cross-linking
T3 sequence (looked up): T2 sequence (looked up) with S46C, C205A

[4] = biological target: T4, C-terminal fragment of PreScission-cleaved His10-Vms1(1-182-PP-417, C387A, K32C, N218C)-HA (S. cerevisiae, UniProt Q04311 183-417, N218C | C387A); test: cross-linking
T4 sequence (looked up): T2 sequence (looked up) with N36C, C205A

[5] = biological target: T5, C-terminal fragment of PreScission-cleaved His10-Vms1(1-182-PP-417, C387A, K32C, T224C)-HA (S. cerevisiae, UniProt Q04311 183-417, T224C | C387A); test: cross-linking
T5 sequence (looked up): T2 sequence (looked up) with T42C, C205A

Molecule: CC(C)[C@@H](C)/C=C/[C@@H](C)[C@H]1CC[C@@H]2[C@]1(C)CC[C@H]1[C@]23C=C[C@]2(C[C@@H](O)CC[C@]12C)OO3 [EP, ergosterol peroxide]
lipid blot on nitrocellulose; liposome floatation assay [1]: Vms1 displayed comparable binding to nitrocellulose-spotted commercial EP and the purified C28H44O3

binding result [2]: binds
B1: N-terminal fragment of PreScission-cleaved His10-Vms1(1-182-PP-417)-HA (domain or fragment, S. cerevisiae, UniProt Q04311 1-182, looked up)
chain: MNSQKASKMTGSLKKNDLYIFDLSEQLLNSLKLMSFDSTLREVEVEKTSDNDRNKESGDLQIARKKVTSNVMRCSVCQMSFDSRNEQKAHYQTDYHLMNVKRNLRGLDILSVEEFDALISKEHGIKSEDENSGGEQTSSDHEESEEASDRDPDLQTNNYMETIIENDLQKLGFQKDESDAIS

binding result [3]: binds
B2: N-terminal fragment of PreScission-cleaved His10-Vms1(1-182-PP-417, C387A, E25C, S228C)-HA (domain or fragment, S. cerevisiae, UniProt Q04311 1-182, looked up)
chain: B1 chain with E25C

binding result [4]: binds
binding result [5]: binds
B3: N-terminal fragment of PreScission-cleaved His10-Vms1(1-182-PP-417, C387A, K32C, T224C or N218C)-HA (domain or fragment, S. cerevisiae, UniProt Q04311 1-182, looked up)
chain: B1 chain with K32C
